In paper PMC13600239:

Tests used:
Rwt7^HMA-6His (wheat) = assay: ITC; […]; 25°C; 20 mM HEPES pH 7.5, 150 mM NaCl; triplicate, […]
[1] = biological target: Rmo2^HMA (integrated HMA domain of the barley tandem kinase protein Rmo2) (barley); assay: as above

Substance	Kd (Rwt7^HMA-6His (wheat)) [nM]	Kd [1] [nM]
PWT7 (Magnaporthe oryzae effector) (natural protein)	2.92	
PBY2 (Magnaporthe oryzae effector) (natural protein)		53.5
